Measured values: patent US20130270124, “BIOSENSOR ELECTRODE FOR HER2 DETECTION, A METHOD FOR PRODUCING IT, A METHOD FOR REGENERATING IT” (RESEARCH & BUSINESS FOUNDATION SUNGKYUNKWAN UNIVERSITY, published 2013)

Legend:
[1] = target: Bovine serum albumin (BSA) (Bos taurus, UniProt P02769 P02769:25-607); test: impedance; 20 ug/ml BSA in PBS, 30 min, Ret unchanged; conditions: tags: Sigma-Aldrich; label: 5'-amine, amide-coupled to MPA on gold electrode
Procedure: (§1) A conventional three-electrode cell was used for performing electrochemical impedance spectroscopy (EIS). Ag/AgCl and a platinum (Pt) plate were respectively used as a reference electrode and an opposite electrode. In every modification and detection stage, an operating electrode was detected by EIS in a 2 mM Fe(CN)6^{3-/4-}(1:1)/PBS solution. An amplitude-sine wave of about 10 mV was applied in a frequency range of about 0.1 Hz to 100 kHz.
EIS data was measured to investigate specificities of the aptamer with respect to other proteins existing blood, such as BSA and IgG. The EIS data of the aptamer-attached electrode was measured (block line), and then the aptamer-attached electrode was immersed in 20 μg/ml concentrations of BSA solution and IgG solution each for 30 minutes. […] Then, when the aptamer-attached electrode was immersed in a solution in which 30 ng/ml HER2 was added to a 20 μg/ml BSA/IgG solution for 30 minutes, the Rₑₜ value increased.

HER2 (ErbB2) = HER2 (ErbB2) (UniProt P04626 P04626:23-652); test: electrochemical impedance on Au/MPA/aptamer electrode; dRet linear 5-50 ng/ml (y=18.97x+160.2, R2=0.99882), saturates 50-500 ng/ml; PBS, 30 min; conditions: tags: R&D Systems; label: 5'-amine, amide-coupled to MPA on gold electrode
Procedure: as §1
After immobilization of the NH₂-ssDNA, the modified gold electrode was incubated in a series of HER2/PBS solutions of different concentrations for 30 minutes each, and then washed with DI water. A series of HER2/PBS solutions of 5 ng/ml to 500 ng/ml concentrations were fabricated in order to confirm a range of soluble concentration.
After the aptamer (NH₂-ssDNA) was immobilized, the modified gold electrode was incubated in a series of HER2/PBS solutions of a range 5.0 to 50 ngmL⁻¹. The modified gold electrode was detected by EIS after each incubation. The difference of electron-transfer resistance ΔRₑₜ between the aptamer-modified gold electrode and the HER2-incubated gold electrode was obtained from a signal formed by a reaction between the immobilized aptamer and the HER2.

Chain of Bovine serum albumin (BSA) (P02769 25-607, one chain of several): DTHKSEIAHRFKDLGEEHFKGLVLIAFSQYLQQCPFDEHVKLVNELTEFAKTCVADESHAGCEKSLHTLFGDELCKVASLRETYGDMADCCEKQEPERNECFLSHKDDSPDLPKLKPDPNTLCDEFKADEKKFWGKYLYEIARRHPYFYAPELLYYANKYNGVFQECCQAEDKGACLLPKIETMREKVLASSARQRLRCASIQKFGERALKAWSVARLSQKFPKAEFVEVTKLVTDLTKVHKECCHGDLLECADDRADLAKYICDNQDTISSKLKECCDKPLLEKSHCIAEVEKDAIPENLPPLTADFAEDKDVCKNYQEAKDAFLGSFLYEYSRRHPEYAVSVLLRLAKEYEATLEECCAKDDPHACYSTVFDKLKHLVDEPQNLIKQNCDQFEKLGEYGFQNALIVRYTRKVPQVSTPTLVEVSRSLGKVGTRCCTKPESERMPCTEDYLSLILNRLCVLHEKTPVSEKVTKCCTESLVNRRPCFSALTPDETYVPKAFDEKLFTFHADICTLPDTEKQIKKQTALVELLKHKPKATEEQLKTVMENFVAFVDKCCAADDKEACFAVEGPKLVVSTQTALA

B1: HER2 NH2-aptamer (ssDNA)
DNA: CTTCTGCCCGCCTCCTTCCTGGGGCCTGGATACGGATTGGTAAGGATTAGTAGGGGGCATAGCTGGAGACGAGATAGGCGGACACT
modifications: 5'-amino modifier C6
[1]
  binding result: no binding
HER2 (ErbB2)
  binding result: binds
